B1: ZNF263 (parent)
chain: RTHTGEKPYKCTLCGENFSHRSNL

Variants of: B1
Experiment: protein stability index of a GFP-peptide fusion (GPS, HEK-293T) (PSI 1-6); higher = more stable
Conditions: c terminus: a fixed tail appended
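Further: lentivirally expressed fusions sorted by FACS into six bins by GFP to DsRed ratio, PSI derived from sequencing read proportions per bin multiplied by bin number.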

Variant	protein stability index
G15Y	1.82
G15W	1.84
H20K	1.8
H20A	2.06
H20E	2.04
H20V	1.89
H20W	2.28
H20P	1.82
H20F	1.67
H20G	1.92
H20I	2.04
H20M	1.98
H20Y	2.13
H20Q	2.26
H20N	1.95
H20L	2.03
H20C	2.03
H20T	2.11
H20S	2.32
H20D	1.84
H20R	1.94
F18K	1.74
F18I	2.17
F18M	1.82

Variant	protein stability index
F18G	2.29
F18H	2.76
F18D	2.27
F18N	2.09
F18L	1.96
F18Y	1.91
F18V	1.88
F18R	2.15
F18Q	2.1
F18S	2.37
F18A	1.86
F18C	3.74
F18E	2.22
F18T	1.95
F18W	2.07
F18P	2.19
S22N	2.33
S22A	1.83
S22R	2.4
S22W	1.44
S22K	2.46
S22Y	1.63
S22F	2
S22P	1.79

Variant	protein stability index
S22M	2
S22D	2.11
S22V	1.91
S22Q	2.01
S22I	1.9
S22G	2.14
S22E	2.23
S22L	1.94
S22C	3.19
S22T	1.92
S22H	2.4
R21N	2.19
R21S	1.96
R21I	1.92
R21K	2.13
R21T	2.11
R21Q	1.94
R21G	2.3
R21D	3.15
R21A	2.59
R21H	2.21
R21C	2.46
R21P	2.08
R21L	1.64

Variant	protein stability index
R21E	2.69
R21Y	1.96
R21W	1.68
R21V	1.98
R21F	2.01
R21M	2.22
S19K	1.66
S19A	2.21
S19P	1.77
S19C	2.06
S19T	1.91
S19L	1.81
S19E	2.29
S19R	2.01
S19M	1.96
S19Q	2.09
S19H	1.48
S19V	2.51
S19N	2.08
S19G	1.96
S19Y	1.97
S19W	1.74
S19D	2.21
S19I	2.81

Variant	protein stability index
S19F	2.12
L24N	2.37
L24Q	2.33
L24G	2.82
L24D	2.39
L24E	2.43
L24I	2.15
L24H	2.42
L24M	1.91
L24F	1.59
L24A	2.3
L24P	2.33
L24K	2.63
L24C	4
N17E	2.4
N17G	2.12
N17K	2.26
N17C	2.25
N17L	1.98
N17T	1.6
N17P	1.81
N17A	1.99
N17Q	1.91
N17V	1.92

Variant	protein stability index
N17R	2.09
N17S	2.02
N17F	2.07
N17Y	1.91
N17I	2.26
N17M	1.76
N17D	1.7
N17W	2.42
N17H	2.15
N23G	2.06
N23K	2.17
N23T	1.94
N23P	2.6
N23D	1.88
N23S	2.05
N23Y	1.96
N23E	2.31
N23R	2.17
N23W	2.55
N23Q	1.91
N23A	2.28
N23L	1.69
N23C	3.48
N23I	2.32

Variant	protein stability index
N23V	1.94
N23H	1.96
N23F	2.23
N23M	2.03
E16D	1.93
E16G	1.68
E16V	2.17
E16A	1.8
E16N	1.77
E16F	2.3
E16Y	2.08
E16H	1.87
E16L	1.5
E16K	1.59
E16I	1.83
E16R	2.03
E16W	1.77
E16T	2.51
E16M	1.86
E16C	1.98
E16S	1.99
E16P	1.94
E16Q	2.46
